This passage reports Kd results from US20190177380, “SYNTHETIC MBNL PROTEINS FOR TREATMENT OF REPEAT EXPANSION DISEASE” (University of Florida Research Foundation, Incorporated, published 2019).

The target of series [1] is T1, Xlrbpa dsRBD2 (printed Xlbpra) (Xenopus laevis) (UniProt Q91836).
T1 sequence: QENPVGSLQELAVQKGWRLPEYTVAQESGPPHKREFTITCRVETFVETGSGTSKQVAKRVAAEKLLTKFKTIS
As to conditions: CITED; isolated dsRBD2; cited from earlier work.

Series [2] has as its target T2, TRBP dsRBD2 (TARBP2) (Homo sapiens) (UniProt Q15633).
T2 sequence: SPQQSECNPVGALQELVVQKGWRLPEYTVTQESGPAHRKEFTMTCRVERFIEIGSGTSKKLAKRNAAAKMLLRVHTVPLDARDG
The conditions noted are these: CITED; isolated dsRBD2; cited from earlier work.

In series [3] the target is T3, MBNL1(1-2,1-2) (Homo sapiens).
T3 chain: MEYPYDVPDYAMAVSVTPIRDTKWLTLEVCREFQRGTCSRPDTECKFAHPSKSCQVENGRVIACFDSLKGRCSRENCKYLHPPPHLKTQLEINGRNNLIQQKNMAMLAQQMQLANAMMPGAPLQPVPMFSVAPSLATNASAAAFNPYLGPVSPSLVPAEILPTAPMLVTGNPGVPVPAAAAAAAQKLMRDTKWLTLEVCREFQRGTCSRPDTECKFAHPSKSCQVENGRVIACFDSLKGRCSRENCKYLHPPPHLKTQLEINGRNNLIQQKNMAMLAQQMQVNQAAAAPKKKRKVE
As to the kind of experiment: EMSA; 115 mM NaCl, 20 mM Tris pH 7.5, 5 mM MgCl2, heparin, room temperature; apparent Kd. As to conditions: label: 5'-32P; short hairpin (predicted). The text has this:
(§1) All synthetic MBNL1 proteins were expressed and purified as N-terminal glutathione S-transferase (GST) fusions (FIG. 4A). These proteins were then used in electrophoretic mobility shift assays (EMSAs) with CUG₄ RNA substrate. The fraction of radiolabeled RNA bound to the protein was used to determine an apparent KD (dissociation constant). […] (FIG. 4B).
(§2) All RNA substrates were ordered from IDT (Coralville, Iowa) or Dharmacon (Lafayette, Colo.) and 5′ end-labelled using T4 PNK (NEB, Ipswich, Mass.) with [γ-³²P] ATP. All RNAs were purified on 10% polyacrylamide denaturing gels. Prior to incubation with protein, these RNAs were denatured by incubation at 95° C. for 2 minutes followed by a 5 minute incubation on ice. Once cooled the RNA was mixed with increasing concentrations of protein (final volume=10 μl) to yield final reaction conditions of 115 mM NaCl, 20 mM Tris pH 7.5, 1 mM β-ME, 0.01 mM EDTA, 10% glycerol, 5 mM MgCl₂, 0.1 mg/ml heparin, 2 mg/ml bovine serum albumin (BSA), and 0.02% xylene cyanol. […] Binding curves were quantified using ImageQuant software (GE Healthcare Life Sciences, Pittsburgh, Pa.). The fraction of RNA bound was calculated as the ratio of all RNA-protein complexes divided by total RNA signal in each lane. The apparent Kd was then determined using the following equation: fbound=fₘₐₓ([MBNL1]/([MBNL1+Kd)).

Series [4] has as its target T4, MBNL1(3-4,3-4) (Homo sapiens).
T4 chain: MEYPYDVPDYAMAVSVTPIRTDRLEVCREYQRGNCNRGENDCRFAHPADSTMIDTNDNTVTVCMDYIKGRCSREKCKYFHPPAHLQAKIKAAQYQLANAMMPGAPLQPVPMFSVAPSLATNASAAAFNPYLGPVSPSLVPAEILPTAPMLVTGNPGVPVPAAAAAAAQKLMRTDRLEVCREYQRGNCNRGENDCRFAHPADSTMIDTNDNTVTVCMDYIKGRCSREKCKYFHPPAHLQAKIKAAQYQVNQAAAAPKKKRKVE
The description is as above. As to conditions: label: 5'-32P; short hairpin (predicted).
Source text: as §1, §2

Series [5] addresses T5, WT-MBNL1 (truncated, aa 1-260 with HA tag and SV40 NLS) (Homo sapiens, UniProt Q9NR56 SEQ:14-272).
T5 chain: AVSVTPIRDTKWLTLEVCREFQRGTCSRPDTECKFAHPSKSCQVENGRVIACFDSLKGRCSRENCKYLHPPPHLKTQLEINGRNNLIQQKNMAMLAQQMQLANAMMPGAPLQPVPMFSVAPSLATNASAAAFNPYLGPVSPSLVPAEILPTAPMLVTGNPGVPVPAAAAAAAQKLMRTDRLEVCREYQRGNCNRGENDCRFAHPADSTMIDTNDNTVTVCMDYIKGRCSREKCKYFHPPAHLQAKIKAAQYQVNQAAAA
As to the kind of experiment: EMSA; 115 mM NaCl, 20 mM Tris pH 7.5, 5 mM MgCl2, heparin, room temperature; apparent Kd; repeated with another batch in FIG. 10C. As to conditions: label: 5'-32P; short hairpin (predicted).
Source text: as §1, §2

Regarding 30 bp synthetic dsRNA, the Kd in series [1] was 11 nM.
Turning to HIV TAR RNA, the Kd in series [2] was 59 nM.

B1: CUG4 (ssRNA)
RNA: GCUGCUGUUCGCUGCUG
As to B1, the Kd is 269 nM in series [3], 257 nM in series [4] and 196 nM in series [5].
